Measurements taken from the Human Domainome abundance scans (Beltran et al. 2025).

B1: RNA-binding E3 ubiquitin-protein ligase MEX3C, residues 325 to 391; numbered along this chain, Q5U5Q3 (parent)
chain: GQTTVQVRVPYRVVGLVVGPKGATIKRIQQQTHTYIVTPSRDKEPVFEVTGMPENVDRAREEIEMHI

Variants of: B1
Test: abundance fitness (aPCA) (normalised: wild type 0, dead -1); higher = more abundant; growth selection in yeast, the domain comes from the species named
Details: Homo sapiens

Abundance fitness, by site and new letter:
V7: Q -0.603, E -0.39, T -0.802, R -0.851, N -0.987, L -0.537, I 0.092, H -0.603, C -0.769, A -0.731, S -0.516, K -0.47, D -0.571, F -0.124, P -0.567, G -0.809, W -0.92, Y -0.717
T4: G -0.646, C -0.718, H -0.38, M -0.751, A -0.523, V -0.477, R -0.425, S -0.757, L -0.756, F -0.881, D -0.631, W -0.832, K -0.414, I -0.622, E -1.06, N -0.812
K21: H -0.273, A -0.186, I -0.53, E -0.099, R -0.196, G -0.04, M -0.031, P -0.884, S -0.233, L -0.183, W -0.458, T -0.596, N -0.113, C -0.247, D -0.19
G19: P -0.824, Q -0.623, R -0.739, K -0.785, I -1.08, F -0.863, E -0.897, H -0.694, V -0.795, M -1.03, D -0.716, L -0.951, A -0.86, W -0.848, N -0.64, Y -0.159, T -0.822, C -0.844
R12: H -0.189, M -0.401, S 0.175, V -0.652, T -0.201, I -0.373, G 0.143, D 0.159, N 0.141, E 0.136, Q 0.013, K 0.063, L -0.588, P 0.054, A 0.001, Y -0.064, F -0.11
G22: E -0.389, K -0.424, A -0.489, Q -0.189, L -0.587, T -0.68, S -0.522, M -0.274, H -0.769, C -0.712, N -0.631, D -0.543, R -0.504, F -0.738, W -0.687, P -0.836
A23: D -0.55, N -0.568, H -0.258, E -0.082, L -0.293, M -0.027, C -0.352, G -0.443, F -0.868, I -0.332, Q 0.003
R8: F -0.666, D -0.666, K 0.038, N -0.971, V -0.66, T -0.209, P -0.18, I -0.375, M -0.555, Q -0.683, E -0.52, C -0.675, H -0.345, W -0.382, Y -0.175, G -0.763, L -0.601, A -0.608, S -0.377
V13: E -0.334, I -0.366, L 0.114, P -0.809, W -0.098, F 0.022, Y -0.073, Q 0.169, H -0.041, D 0.057, A -0.029, M 0.075, G -0.153, C -0.024, K 0.216, S 0.127, T -0.006, R -0.25, N -0.207
V18: C -0.258, S -0.523, N -0.305, F -0.374, K -0.541, M -0.119, W -0.639, G -0.794, T -0.26, R -0.508, H -0.456, D -0.367, I 0.019, Q -0.63, E -0.284, Y -0.256, P -0.771, A -0.433
